Test [1] has as its target T1, HLA-A*01:01 (human), P04439.
T1 chain: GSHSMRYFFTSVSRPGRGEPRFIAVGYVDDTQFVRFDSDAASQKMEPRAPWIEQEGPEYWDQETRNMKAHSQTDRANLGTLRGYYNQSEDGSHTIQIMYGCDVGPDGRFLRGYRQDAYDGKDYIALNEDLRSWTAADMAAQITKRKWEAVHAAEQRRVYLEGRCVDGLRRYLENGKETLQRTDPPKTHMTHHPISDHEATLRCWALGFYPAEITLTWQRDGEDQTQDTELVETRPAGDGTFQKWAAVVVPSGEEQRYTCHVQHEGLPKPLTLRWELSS
As to the kind of experiment: HLA-binding assay. The following applies: chains peptide; modification not given.

The target of test [2] is T2, HLA-A*02:01 (human), P04439.
T2 chain: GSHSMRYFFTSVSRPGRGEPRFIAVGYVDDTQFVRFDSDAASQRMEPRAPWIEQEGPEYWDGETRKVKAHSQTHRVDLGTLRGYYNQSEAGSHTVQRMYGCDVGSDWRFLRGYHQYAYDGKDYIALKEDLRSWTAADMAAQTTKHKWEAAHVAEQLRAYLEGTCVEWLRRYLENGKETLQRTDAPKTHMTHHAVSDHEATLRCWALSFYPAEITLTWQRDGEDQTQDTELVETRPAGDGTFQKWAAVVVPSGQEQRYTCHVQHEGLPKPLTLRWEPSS
Nature of the test: HLA-binding assay. The following applies: chains peptide; modification not given.

B1: HPV E2 329-337 peptide … (peptide)
chain: KSAIVTLTY
What is called IC50 is the concentration needed to halve the response being measured. Turning to B1, the IC50 in test [1] came to 11 nM.

B2: HPV E2 151-159 peptide … (peptide)
chain: QVDYYGLYY
Molecule B2 gave an IC50 in test [1] of 18 nM.

B3: HPV E5 46-54 peptide … (peptide)
chain: VLLLWITAA
As to B3, in test [2], the IC50 amounted to 11 nM.

Source of the values: US20240352087A1.
